Assay results: US20250163119A1, “COMPOUNDS FOR THE TREATMENT OF DIABETES OR OBESITY” (Eli Lilly and Company, priority 2023, published 2025)
*1 amine or outer side, *2 acyl side, *3 side chain or, on linkers, in order; H or OH if unused. Where no end group is shown, it is not given here. Side-chain parts run from the residue outwards. [ ]: non-standard residue; d: D form. The star is where a group is joined. C20 diacid = O=C(O)CCCCCCCCCCCCCCCCCCC(=O)*; C18 diacid = O=C(O)CCCCCCCCCCCCCCCCC(=O)*; γGlu = O=C(O)[C@H](CCC(=O)[*:2])N[*:1]; εLys = N[C@@H](CCCCN[*:1])C(=O)[*:2]; pGlu = O=C1CC[C@@H](C(=O)O)N1; αMeL = CC(C)C[C@](C)(N)C(=O)O; PKE = not defined here; AEEA = NCCOCCOCC(=O)O; Aib = CC(C)(N)C(=O)O; Ahx = NCCCCCC(=O)O; βAla = NCCC(=O)O

T1: human corticotropin-releasing hormone receptor 1 (CRHR1) (human, UniProt P34998 24-415)
T1 sequence (looked up): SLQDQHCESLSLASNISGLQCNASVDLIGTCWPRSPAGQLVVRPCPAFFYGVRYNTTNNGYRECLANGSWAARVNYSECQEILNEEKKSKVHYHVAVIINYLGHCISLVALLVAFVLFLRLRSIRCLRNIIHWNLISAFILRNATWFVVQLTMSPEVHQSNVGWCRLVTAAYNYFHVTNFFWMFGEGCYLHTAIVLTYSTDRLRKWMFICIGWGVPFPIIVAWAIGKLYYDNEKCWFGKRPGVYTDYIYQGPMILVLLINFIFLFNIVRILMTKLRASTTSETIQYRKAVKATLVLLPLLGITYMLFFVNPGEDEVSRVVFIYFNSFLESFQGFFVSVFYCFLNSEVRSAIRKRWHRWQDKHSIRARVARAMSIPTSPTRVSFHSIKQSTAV


Each binder was assayed against T1, human corticotropin-releasing hormone … (assay: cell-based or functional assay).

Row | Binder | hCRHR1 cAMP EC50
1 | Ac-GSPSIVTS[αMeL]DVPT[Aib][αMeL]LQKILEQERAEKARQQAK([γGlu-AEEA-Ahx-C20 diacid])EAAEILAQV-NH2 [polypeptide comprising SEQ ID NO:5] | > 10 µM
2 | Ac-GSPSIVTS[αMeL]DVPT[Aib][αMeL]LQKILEQERAEKARQQAKEAAEILAQV-NH2 [polypeptide comprising SEQ ID NO:20] | > 10 µM
3 | Ac-GSPSIVTS[αMeL]DVPT[Aib][αMeL]LQKILEQERAEKARQQAK([γGlu-Pro-Pro-Pro-εLys-C20 diacid])EAAEILAQV-NH2 [polypeptide comprising SEQ ID NO:14] | > 10 µM
4 | Ac-GSPSIVTS[αMeL]DVPT[Aib][αMeL]LQKILEQERAEKARQQAK([Gly-βAla-βAla-βAla-βAla-γGlu-C20 diacid])EAAEILAQV-NH2 [polypeptide comprising SEQ ID NO:8] | > 10 µM
5 | Ac-GSPSIVTS[αMeL]DVPT[Aib][αMeL]LQKILEQERAEKARQQAK([βAla-Ser-βAla-Ser-γGlu-C20 diacid])EAAEILAQV-NH2 [polypeptide comprising SEQ ID NO:10] | > 10 µM
6 | Ac-IVTS[αMeL]D[dV]PTG[αMeL]LQIKLEQERAEKARQQAKENTEILAQV-NH2 (not fully specified (residue 29)) [polypeptide comprising SEQ ID NO:31] | > 10 µM
7 | [γGlu]GSPSIVTS[αMeL]DVPT[Aib][αMeL]LQKILEQERAEKARQQATEAAEILAQV-NH2 (not fully specified (residue 1, N-terminus); also: Glu1 linked through its gamma-carboxyl to Gly2) [polypeptide comprising SEQ ID NO:28] | > 10 µM
8 | [pGlu]GSPSGIVTS[αMeL]DVPT[Aib][αMeL]LQKILEQERAEKARQQAK([γGlu-AEEA-εLys-C18 diacid])EAAEILAQV-NH2 [polypeptide comprising SEQ ID NO:24] | > 10 µM
9 | Ac-GSPSIVTS[αMeL]DVPT[Aib][αMeL]LQKILEQERAEKARQQAK([γGlu-Pro-Pro-Pro-Pro-Pro-Pro-C20 diacid])EAAEILAQV-NH2 [polypeptide comprising SEQ ID NO:15] | > 10 µM
10 | [γGlu]GSPSIVTS[αMeL]DVPT[Aib][αMeL]LQKILEQERAEKARQQATEAAEILAQV-NH2 (not fully specified (residue 1, N-terminus); also: Glu1 linked through its gamma-carboxyl to Gly2) [polypeptide comprising SEQ ID NO:26] | > 10 µM
11 | Ac-GSPSIVTS[αMeL]DVPT[Aib][αMeL]LQKILEQERAEKARQQAK([γGlu-Pro-Lys-Glu-Ahx-C20 diacid])EAAEILAQV-NH2 [polypeptide comprising SEQ ID NO:11] | > 10 µM
12 | Ac-GSPSIVTS[αMeL]DVPT[Aib][αMeL]LQKILEQERAEKARQQAK([γGlu-Pro-Lys-Glu-εLys-C20 diacid])EAAEILAQV-NH2 [polypeptide comprising SEQ ID NO:13] | > 10 µM
13 | Ac-GSPSIVTS[αMeL]DVPT[Aib][αMeL]LQKILEQERAEKARQQAK([γGlu-AEEA-AEEA-εLys-C20 diacid])EAAEILAQV-NH2 [polypeptide comprising SEQ ID NO:17] | > 10 µM
14 | Ac-GSPSIVTS[αMeL]DVPT[Aib][αMeL]LQKILEQERAEKARQQAK([γGlu-εLys-γGlu-εLys-C20 diacid])EAAEILAQV-NH2 [polypeptide comprising SEQ ID NO:18] | > 10 µM
15 | Ac-GSPSIVTS[αMeL]DVPT[Aib][αMeL]LQKILEQERAEKARQQAK([γGlu-GKEKEKE-C20 diacid])EAAEILAQV-NH2 [polypeptide comprising SEQ ID NO:6] | > 10 µM
16 | Ac-GSPSIVTS[αMeL]DVPT[Aib][αMeL]LQKILEQERAEKARQQAK([γGlu-AEEA-εLys-C18 diacid])EAAEILAQV-NH2 [polypeptide comprising SEQ ID NO:21] | > 10 µM
17 | Ac-GSPSIVTS[αMeL]DVPT[Aib][αMeL]LQKILEQERAEKARQQAK([AEEA-KEKEKE-γGlu-C20 diacid])EAAEILAQV-NH2 [polypeptide comprising SEQ ID NO:9] | > 10 µM
18 | H-GSPSIVTS[αMeL]DVPT[Aib][αMeL]LQKILEQERAEKARQQATEAAEILAQV-NH2 [polypeptide comprising SEQ ID NO:27] | > 10 µM
19 | Ac-IVTS[αMeL]D[dV]PTG[αMeL]LQIKLEQERAEKARQQAKENTEILAQV-NH2 (not fully specified (residue 29)) [polypeptide comprising SEQ ID NO:30] | > 10 µM
20 | Ac-GSPSIVTS[αMeL]DVPT[Aib][αMeL]LQKLLEQERAEKARQQAK([γGlu-AEEA-Lys-C18 diacid])EAAEILAQV-NH2 (not fully specified) [polypeptide comprising SEQ ID NO:12] | > 10 µM
21 | [γGlu]GSPSIVTS[αMeL]DVPT[Aib][αMeL]LEKILEQERAEKARQQATEAAEILAQV-NH2 (not fully specified (residue 1, N-terminus)) [polypeptide comprising SEQ ID NO:52] | 1.5 µM
22 | Ac-GSPSIVTS[αMeL]DVPT[Aib][αMeL]LQKILEQERAEKARQQAK([AEEA-PKE-γGlu-C20 diacid])EAAEILAQV-NH2 (reading uncertain) [polypeptide comprising SEQ ID NO:3] | > 10 µM
23 | Ac-GSPSIVTS[αMeL]DVPT[Aib][αMeL]LQKILEQERAEKARQQAK([γGlu-εLys-AEEA-εLys-C20 diacid])EAAEILAQV-NH2 [polypeptide comprising SEQ ID NO:19] | > 10 µM
24 | Ac-IVTS[αMeL]D[dV]PI[Aib][αMeL]LQIKLEQERAEKARQQAKENTEILAQV-NH2 (not fully specified (residue 29)) [polypeptide comprising SEQ ID NO:51] | 4.3 µM
25 | [pGlu]GSPSGIVTS[αMeL]DVPT[Aib][αMeL]LQKILEQERAEKARQQAKEAAEILAQV-NH2 [polypeptide comprising SEQ ID NO:23] | > 10 µM
26 | Ac-GSPSIVTS[αMeL]DVPT[Aib][αMeL]LQKILEQERAEKARQQAK([γGlu-Pro-Glu-Pro-Glu-Pro-Glu-C20 diacid])EAAEILAQV-NH2 [polypeptide comprising SEQ ID NO:16] | > 10 µM
27 | Ac-GSPSIVTS[αMeL]DVPT[Aib][αMeL]LQKILEQERAEKARQQAK([Gly-βAla-βAla-βAla-γGlu-C20 diacid])EAAEILAQV-NH2 [polypeptide comprising SEQ ID NO:7] | > 10 µM
